From patent US20240317871A1 (IMMUNOMIC THERAPEUTICS, published 2024)

T1: cynomolgus monkey HVEM (cynomolgus monkey, UniProt A0A2K5W0R1 39-203)
T1 sequence: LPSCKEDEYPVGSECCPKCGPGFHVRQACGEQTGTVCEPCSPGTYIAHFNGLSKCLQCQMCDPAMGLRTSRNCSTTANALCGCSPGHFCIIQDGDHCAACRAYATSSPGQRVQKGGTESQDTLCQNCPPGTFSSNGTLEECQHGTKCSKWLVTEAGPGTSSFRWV

T2: murine HVEM (murine, UniProt Q80WM9 39-206, limits assumed)
T2 construct: also called Mouse
T2 sequence (looked up): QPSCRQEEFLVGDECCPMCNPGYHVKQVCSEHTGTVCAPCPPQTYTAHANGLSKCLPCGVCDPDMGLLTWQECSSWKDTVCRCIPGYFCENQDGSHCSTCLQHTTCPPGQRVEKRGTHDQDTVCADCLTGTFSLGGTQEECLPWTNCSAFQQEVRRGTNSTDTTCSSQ

T3: human HVEM (human, UniProt Q92956 39-202, limits assumed)
T3 sequence (looked up): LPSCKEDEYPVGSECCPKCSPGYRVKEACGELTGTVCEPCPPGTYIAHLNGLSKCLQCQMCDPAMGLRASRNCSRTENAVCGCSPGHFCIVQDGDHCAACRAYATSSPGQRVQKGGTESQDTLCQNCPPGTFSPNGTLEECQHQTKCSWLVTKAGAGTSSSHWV

T4: His-tagged human HVEM (human, UniProt Q92956 39-202, limits assumed)
T4 construct: Analyte of the BLI assay, 200 nM in PBS; not shown: His tag
T4 sequence (looked up): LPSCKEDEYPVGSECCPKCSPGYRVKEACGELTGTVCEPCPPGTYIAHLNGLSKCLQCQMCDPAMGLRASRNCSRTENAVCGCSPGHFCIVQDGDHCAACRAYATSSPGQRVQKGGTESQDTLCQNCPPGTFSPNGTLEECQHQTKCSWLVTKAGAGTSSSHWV

T5: Human HEVM recombinant protein (Sino Biological, 10334-H02H) (human, UniProt Q92956 39-202)
T5 construct: construct known only by catalogue number; also called HVEM; human HVEM
T5 sequence (looked up): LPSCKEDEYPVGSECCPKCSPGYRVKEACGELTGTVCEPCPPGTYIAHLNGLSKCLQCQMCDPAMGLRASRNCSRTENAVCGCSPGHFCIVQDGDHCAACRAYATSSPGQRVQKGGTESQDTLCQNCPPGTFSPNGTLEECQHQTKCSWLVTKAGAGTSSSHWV

B1: Ab_071 (H5S20-3B7A) (antibody, V domains shown)
VH: QVQLQQSGAELVRPGTSVKISCKASGYTFTNSWLGWVKQRPGHGLEWIGDIYPGGGYNKYNEKFRGKATLTADTSSSTAYMQLSSLTSEDSAVYFCAGAMDYWGQGTSVTVSS
VL: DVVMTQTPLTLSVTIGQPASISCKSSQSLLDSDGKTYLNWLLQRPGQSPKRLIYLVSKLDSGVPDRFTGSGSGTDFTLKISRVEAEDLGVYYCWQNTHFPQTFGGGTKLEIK
notes: also called Ab_149; Ab_71
B2: Ab_011 (H5S14-12A11A) (antibody, V domains shown)
VH: QVQLQQSGAELVRPGTSVKISCKASGNIFTNSWLGWIKQRPGHGLEWIGDVYPGGGYNKYNEKFKGKATLTIDTSASTAYMQLSRLTSEDSGVYFCAGAMDYWGQGTSVTVSS
VL: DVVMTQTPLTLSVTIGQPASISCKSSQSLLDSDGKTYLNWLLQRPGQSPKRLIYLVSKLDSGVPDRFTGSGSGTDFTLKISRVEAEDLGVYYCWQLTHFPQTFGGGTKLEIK
notes: also called Ab_11
B3: Ab_028 (H5S15-33A29A) (antibody, V domains shown)
VH: QVQLKQSGPGLVQPSQSLSITCTVSGFSLTTYGVHWVRQSPGKGLEWLGVIWSGGNTDYNPAFISRLSISKDNSKSQVFFKMNTLQASDTAIYYCARRGYNKGYAMDYWGQGTSFTVSS
VL: EIVLTQSPALMTASPGEKVTITCSVSSTISSRNLHWYQQKSEASPKPWIYGTSNLASGVPVRFSGSGSGTSYSLTISSMEAEDAATYYCQQWNSYPLTFGSGTKLEIK
notes: also called Ab_28
B4: Ab_010 (H5S14-10A9A) (antibody, V domains shown)
VH: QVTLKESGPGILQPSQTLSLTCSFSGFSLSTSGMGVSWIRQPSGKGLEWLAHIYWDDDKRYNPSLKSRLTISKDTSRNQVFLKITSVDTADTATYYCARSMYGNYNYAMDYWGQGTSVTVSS
VL: DIQMTQSPASLSASVGETVTITCRASENIYSYLAWYQQKQGKSPQLLVYNAKTLAEGVPSRFSGSGSGTQFSLKINSLQPEDFGSYYCQHHYGTMYTFGGGTKLEIK
notes: also called Ab_10
B5: Ab_006 (H5S14-5A5A) (antibody, V domains shown)
VH: DVQLQESGPGLVKPSQSLSLTCTVTGYSITSDFAWNWIRQFPGNKLEWMGYIVYSGSTSYNPSLKSRISITRDTSKNQFFLQLNSVTAEDTATYFCTRGMDYWGQGTSVTVSS
VL: QIVLTQSPAIISASLGEEVTLTCSASSSVSYMHWYQQKSGTSPKLLIYSTSNLASGVPSRFSGSGSGTFYSLTISSVEAEDAADYYCHQWSSYLTFGAGTKLELK
notes: also called Ab_6
B6: Ab_054 (H5S19-21A17C) (antibody, V domains shown)
VH: QVQLKESGPGLVAPSQSLSITCTVSGFSLTSYGVHWVRQPPGKGLEWLGVIWAGGITNYNSALMSRLSISTDNSRSQVFLKMNSLQTDDTAMYYCARDWERDSSGPFPYWGQGTLVTVSA
VL: DIQMTQTTSSLSASLGDRVTISCSASQGISNYLNWYQQKPDGTVKLLIYYTSSLHSGVPSRFSGSGSGTDYSLTISNLEPEDIATYFCQQYSKLPWTFGGGTKLEIK
notes: also called Ab_54
B7: Ab_087 (H5S20-59A43A) (antibody, V domains shown)
VH: EVKLVESGGGLVKPGGSLKLSCAASGFTFSSYAMSWVRQTPEKRLEWVASISSGSSTYYPDSVKGRFTISRDNARNILYLQMSSLRSEDTAMYYCAKGRGYGNYLYAMDYWGQGTSVTVSS
VL: DIVMTQSQKFMSTSVGDRVSVTCKASQNVGTNVAWYQQKPGQSPKALIYSASYRYSGVPDRFTGSGSGTDFTLTISNVQSEDLAEYFCQQYNSYPLTFGGGTKLEIK
notes: also called Ab_87
B8: Ab_029 (H5S15-14A14B) (antibody, V domains shown)
VH: EVQLQQSGPELVKPGASVKMSCKASGYTFTSYVMHWVKQKPGQGLEWIGYINPYNDDTNCNEKFKGKATLTSDKSSSTAYMELSRLTSEDSAVYYCAKARGYGSTFYYSMDYWGQGTSVTVSS
VL: DIVMTQSQKFMSTSVGDRVSVTCKASQNVGTNVAWYQQRPGQSPKSLIYSASYRYSGVPDRFTGSGSGTDFTLTISNVQSEDLADYFCQQYNSYPYTFGGGAKLEIK
notes: also called Ab_29
B9: Ab_026 (H5S15-11A3B) (antibody, V domains shown)
VH: EVQLQQSGADLVKPGASVKLSCTASGFNIKDTYMHWVKQRPEQGLEWIGRIAPANGRTKYDPKFQGKATITADTSSNTAYLQLSSLTSEDTAVYYCANYYASSYDWFAYWGQGTLVTVSA
VL: DVLMTQTPLSLTVSLGHQASISCRSSQSIVHSNGNTYLEWYLQKPGQSPKLLIYKVSNRFSGVPDRFSGSGSGTDFTLKISRVEAEDLGVYYCFQGSHVPLTFGAGTKLELK
notes: also called Ab_26
B10: Ab_027 (H5S15-17A16A) (antibody, V domains shown)
VH: EVQLQQSGAELVKPGASVKLSCTASGFNIKDTYMHWVKQRPEQGLEWIGRIAPANGKTKFDPKFQGKATITADTSSNTAYLQLSSLTSEDTAVYYCANYYGRSNDWFVYWGQGTLVTVSA
VL: DVLMTQTPLSLPVSLGDQASISCRSSQSIVHSNGITYLEWYLQKPGQSPELLIYKVSNRFSGVPDRFSGSGSGTDFTLKISRVEAEDLGVYYCFQGSHVPLTFGAGTKLELK
notes: also called Ab_27
B11: Ab_025 (H5S15-2A2A) (antibody, V domains shown)
VH: EVQLQQSGAELVKPGASVKLSCTASGFNIKDTYMHWVKQRPEQGLEWIGRIDPANDNTKYDPKFQGKATITADTSSNTAYLQLSSLTSEDTAVYYCARVYYAMDYWGQGTSVTVSS
VL: DIQMTQSPASLSASVGETVTITCRASENIYSYLAWYQQKQGKSPQLLVYNAKTLAEGVPSRFSGSGSGTQFSLKINSLQPEDFGSYYCQHHYGTYTFGGGTKLEIK
notes: also called Ab_25

What was measured:
cynomolgus monkey HVEM = target: T1, cynomolgus monkey HVEM; experiment: ELISA
murine HVEM = target: T2, murine HVEM; experiment: ELISA
human HVEM = target: T3, human HVEM; experiment: ELISA
His-tagged human HVEM = target: T4, His-tagged human HVEM; experiment: BLI OctetRed96, mAb captured, 200 nM His-HVEM
Procedure, shortened: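 Kinetics (kon, koff, KD) were fitted from association in 200 nM His-HVEM in PBS and dissociation in PBS buffer. The mouse antibodies had been captured directly from culture supernatant onto anti-mouse IgG Fc sensors.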

[1] = target: T5, Human HEVM recombinant protein (Sino …); experiment: competition ELISA, competitor LIGHT-His
Experimental: (§1) The competitive activity of HVEM antibody to BTLA or LIGHT was evaluated with ELISA-based competitive assay. Briefly Human HEVM recombinant protein (Sino Biological, 10334-H02H, 4 ug/ml, 100 ul/well) was coated to ELISA plate (Thermo Scientific, 469949, 4C overnight). A pre-mixture of HVEM antibody clone with seral dilution and 400 nM BTLA-His (R&D systems, 9235-BT-050) or LIGHT-His (SinoBiological, 10386-H07H) recombinant protein was made and added to the ELISA plate after blocking with 3% BSA (200 ul/well, RT 2 Hr) for 1 Hr at RT. The serial dilutions of HVEM antibody clone involve 7 different concentrations, with a 3-fold dilution performed start from 100 nM for BTLA or 325 nM for LIGHT competitive assay. The concentration was the final concentration. Plate was washed with PBST; diluted HRP-anti-His (Biolegend, 652504, 1:1000) with PBS containing 5% FBS was added 100 ul per well for 1 Hr at RT. TMB substrate (KPL, 52-00-00) 100 ul per well after washing and incubate at room temperature for 15 minutes; then stop the development by adding 100 ul stop solution (KPL, 50-85-06). Plate was read at 450 nm. The IC50 was calculated using GraphPad Prism software (GraphPad Software, Inc. San Diego, CA, USA).

[2] = target: T5, Human HEVM recombinant protein (Sino …); experiment: competition ELISA, competitor BTLA-His
Experimental: as §1

Binder | ELISA signal (cynomolgus monkey HVEM) | ELISA signal (murine HVEM) | ELISA signal (human HVEM) | Kd (His-tagged human HVEM) [nM] | koff (His-tagged human HVEM) [s⁻¹] | kon (His-tagged human HVEM) [M⁻¹ s⁻¹] | IC50 [1] [nM] | IC50 [2] [nM]
B1 | 2.98 | 0.047 | 3.08 | 2.2 | 0.00093 | 423000 | 20.4 | –
B2 | 2.97 | 0.049 | 3.16 | 2.78 | 0.00107 | 385000 | 20.5 | –
B3 | 2.19 | 0.05 | 3.16 | 6.9 | 0.00266 | 386000 | – | 1.4
B4 | 0.068 | 0.044 | 2.68 | 7210 | 1.15 | 159000 | – | 11.3
B5 | 2.69 | 0.043 | 3.14 | 19.6 | 0.00692 | 353000 | 24.6 | –
B6 | 2.23 | 0.042 | 2.5 | 20.4 | 0.00291 | 143000 | 369 | –
B7 | 0.069 | 0.045 | 3.22 | 1570 | 0.323 | 206000 | – | 5.2
B8 | 0.068 | 0.045 | 3.33 | 47 | 0.0403 | 858000 | – | 1.3
B9 | 0.088 | 0.043 | 3.1 | 11.1 | 0.00864 | 776000 | – | 2.4
B10 | 0.064 | 0.043 | 3.13 | 2.68 | 0.00171 | 639000 | – | 2.2
B11 | 3.16 | 0.045 | 3.01 | 11.6 | 0.00596 | 515000 | – | 10
